In doi:10.1101/2020.01.08.898304 (bioRxiv, 2020):
Residue numbers refer to the chain shown, from its start.

Assays:
[1] = biological target: T1, Jacob (recombinant protein used for ITC) (UniProt Q9EPI6 1-532); assay: ITC
T1 sequence (looked up): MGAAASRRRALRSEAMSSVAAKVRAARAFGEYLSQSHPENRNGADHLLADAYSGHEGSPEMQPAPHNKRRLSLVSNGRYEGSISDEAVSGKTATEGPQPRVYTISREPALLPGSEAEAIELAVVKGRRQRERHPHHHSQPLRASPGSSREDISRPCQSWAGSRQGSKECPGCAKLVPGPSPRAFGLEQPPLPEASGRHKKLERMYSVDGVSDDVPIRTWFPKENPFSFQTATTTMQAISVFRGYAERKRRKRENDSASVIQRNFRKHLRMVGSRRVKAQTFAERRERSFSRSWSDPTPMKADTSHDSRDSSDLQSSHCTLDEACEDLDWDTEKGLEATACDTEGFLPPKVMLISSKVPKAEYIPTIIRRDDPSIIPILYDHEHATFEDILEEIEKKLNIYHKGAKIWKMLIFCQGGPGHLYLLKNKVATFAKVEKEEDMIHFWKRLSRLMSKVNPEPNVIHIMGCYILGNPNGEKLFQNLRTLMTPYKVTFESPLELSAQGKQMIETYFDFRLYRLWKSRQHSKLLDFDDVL

MBP-Jacob-45-228 = biological target: T2, MBP-Jacob-45-228 (UniProt Q9EPI6 45-228); assay: pull-down
T2 sequence (looked up): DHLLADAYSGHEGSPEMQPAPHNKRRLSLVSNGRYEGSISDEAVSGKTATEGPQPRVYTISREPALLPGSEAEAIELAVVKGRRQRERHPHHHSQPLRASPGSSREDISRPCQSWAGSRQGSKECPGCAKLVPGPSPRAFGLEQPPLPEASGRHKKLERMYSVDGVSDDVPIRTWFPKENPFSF

MBP-Jacob-45-228-180A = biological target: T3, MBP-Jacob-45-228-180A (UniProt Q9EPI6 45-228, S180A); assay: pull-down
T3 sequence (looked up): T2 sequence (looked up) with S136A

B1: GST-LMO4 (natural protein, UniProt P61968 1-165, looked up)
chain: MVNPGSSSQPPPVTAGSLSWKRCAGCGGKIADRFLLYAMDSYWHSRCLKCSCCQAQLGDIGTSCYTKSGMILCRNDYIRLFGNSGACSACGQSIPASELVMRAQGNVYHLKCFTCSTCRNRLVPGDRFHYINGSLFCEHDRPTALINGHLNSLQSNPLLPDQKVC
**Q.** For B1, which Kd [1] is on record?
**A.** Its Kd is 370 nM.

**Q.** Does B1 bind (MBP-Jacob-45-228)?
**A.** Result: binds

**Q.** Does B1 bind (MBP-Jacob-45-228-180A)?
**A.** Result: binds
